Consider nine sequences from the DeepSol protein solubility set.

This data set is described as follows: soluble on expression in E. coli; label from the status in PepcDB or PDB records.
For the sequence “MGHHHHHHSHKPVPWVEKYRPKCVDEVAFQEEVVAVLKKSLEGADLPNLLFYGPPGTGKTSTILAAARELFGPELFRLRVLELNASDERGIQVVREKVKNFAQLTVSGSRSDGKPCPPFKIVILDEADSMTSAAQAALRRTMEKESKTTRFCLICNYVSRIIEPLTSRCSKFRFKPLSDKIQQQRLLDIAKKENVKISDEGIAYLVKVSEGDLRKAITFLQSATRLTGGKEITEKVITDIAGVIPAEKIDGVFAACQSGSFDKLEAVVKDLIDEGHAATQLVNQLHDVVVENNLSDKQKSIITEKLAEVDKCLADGADEHLQLISLCATVMQQLSQNC”, the “soluble on expression in E. coli” value is recorded as “not soluble”.

On to “SQFDILCKTPPKVLVRQFVERFERPSGEKIASCAAELTYLCWMITHNGTAIKRATFMSYNTIISNSLSFDIVNKSLQFKYKTQKATILEASLKKLIPAWEFTIIPYNGQKHQSDITDIVSSLQLQFESSEEADKGNSHSKKMLKALLSEGESIWEITEKILNSFEYTSRFTKTKTLYQFLFLATFINCGRFSDIKNVDPKSFKLVQNKYLGVIIQCLVTETKTSVSRHIYFFSARGRIDPLVYLDEFLRNSEPVLKRVNRTGNSSSNKQEYQLLKDNLVRSYNKALKKNAPYPIFAIKNGPKSHIGRHLMTSFLSMKGLTELTNVVGNFSDKRASAVARTTYTHQITAIPDHYFALVSRYYAYDPISKEMIALKDETNPIEEWQHIEQLKGSAEGSIRYPAWNGIISQEVLDYLSSYINRRIGHHHHHH”, for which the “soluble on expression in E. coli” value is “soluble”.

On to “MSQSRDLQGGKAFGLLKAQQEERLEGINKQFLDDPKYSNDEDLPSKLEAFKVKYMEFDLNGNGDIDIMSLKRMLEKLGVPKTHLELKRLIREVSSGSEETFSYSDFLRMMLGKRSAILRMILMYEEKNKEHKRPTGPPAKKAISELP”, for which the “soluble on expression in E. coli” value is listed as “soluble”.

In the case of VNFDDIASSENLLHLTANRPKMPGRRLPG, the “soluble on expression in E. coli” value is reported as “soluble”.

In the case of “MKHSLPDLPYDYGALEPHINAQIMQLHHSKVHAAYVNNLNVTEEKYQEALAKGDVTAQIALQPALKFNGGGHINHSIFWTNLSPNGGGEPKGELLEAIKRDFGSFDKFKEKLTAASVGVQGSGWGWLGFNKERGHLQIAACPNQDPLQGTTGLIPLLGIDVWEHAYYLQYKNVRPDYLKAIWNVINWENVTERYMACKK”, the “soluble on expression in E. coli” value is on record as “soluble”.

“MSKIEIYNREEALLLIEKLNNSNIEIPILLMLTLGLRLGEATGLRWTDVDLNIGSVSVSQTLIYANNKIEFKEPKTSKSRRTLSAPDELIEKLKIEKLRQNKLKLQGILKNENNLVCLNKDYNPFLPATLRKSFHRFIKKNNLKNIRMHDLRHTNASLLLLGGTNMKVVSERLGHTDIQITMNRYSHVLEEMDKKASDNLSKILEHHHHHH”: the “soluble on expression in E. coli” value is recorded as “not soluble”.

For the sequence “MGSDKIHHHHHHMMAFITVKPEIKNNLANVAKELKIDEELLKSANRSAQKHQLYCPGYVIEEHSGKELQTIQDIKRFLQPRQLKLSDSWIEQEKIYDDSAVEKEIKKIIDVFPFVSCREIGRSVLGRPIWELKAGGEHAVKKVHMNASFHANEWITTSVLLKWFKEYCMSLCCNSPFFGFSPIKLFNSTSLSLVPLVNPDGVDLVLNGSEVMGARRDELERLNEHRPNFNEWKANINGVDLNKQFPSLWEIEKYRKPTAPSYRDFPGISPLTEPESIAMYRLITENPPDRLLALHTQGEEIYWGYKGLEPEESAAVIKEFEELSGNIYKGVRDIDSYAGFRDWFIHHYFKEGYTVELGKGQNPLPFQQFSHIYNATSGILWRALFFHE”, the “soluble on expression in E. coli” value is given as “not soluble”.

With “MDSGINNISRFRIDHSFHKLHYAMHSAHSHTYYELFYMMHGNCTISIDNRLFTLSEGNIIFIPANSVHRTSYIGELVPERTYIEFSKDYIETISQTLGKNWAEHNLWGHILYIEKEKREKIDFLFREIQKEYDIVDGYSDCCIRQLFQYLIINLIRLDRNTKDIKEFITNSDNKINQNMIIAAKYIAENFKNDITLKDVASHLNLNPSYFSSKFKAFNNIGFAEYLRNIRVNHAEWYLIETDLSLSDIASECGFCNSNYFGDTFKLVNGISPSEFRKNNKPKKAEN”, the “soluble on expression in E. coli” value is listed as “not soluble”.

Take “MGSDKIHHHHHHLRTNTPTFINIRNSYKIKTIMHFHLSGNAASDLKIVRFEDFSGSADAFRQHWYVHRVTMQRRKHVIVMEESTRYALLFCRVTQPFFKNFPEFFADTLWRHIVSLCAVPTARFGSIQAMTTDMCSENIYHKGLNRSVQAHIRDSFLTLECYLLHEPPINLARQEDVFQMNIRINETPRTRYGEKNYIWSLREFQRLWCEHLGVAAVRG”: the “soluble on expression in E. coli” value is “not soluble”.
